Laboratory results published in IntAct's records for PubMed 23523103.

Target: hsp7c_human HSPA8 (UniProt P11142)

effect of a mutation on the interaction: increasing interaction
Substance: L-lactate dehydrogenase A chain (Homo sapiens) (from UniProt P00338) K5Q
